Measurements from IntAct's records for PubMed 28348268.

B1: HLA class I histocompatibility antigen, alpha chain G (Homo sapiens), P17693-2 (parent)
chain: MVVMAPRTLFLLLSGALTLTETWAGSHSMRYFSAAVSRPGRGEPRFIAMGYVDDTQFVRFDSDSACPRMEPRAPWVEQEGPEYWEEETRNTKAHAQTDRMNLQTLRGYYNQSEANPPKTHVTHHPVFDYEATLRCWALGFYPAEIILTWQRDGEDQTQDVELVETRPAGDGTFQKWAAVVVPSGEEQRYTCHVQHEGLPEPLMLRWKQSSLPTIPIMGIVAGLVVLAAVVTGAAVAAVLWRKKSSD

Variants of: B1
Conditions: with lirb2_human LILRB2, Q8N423
Sequence of lirb2_human LILRB2, Q8N423 (Q8N423 whole entry): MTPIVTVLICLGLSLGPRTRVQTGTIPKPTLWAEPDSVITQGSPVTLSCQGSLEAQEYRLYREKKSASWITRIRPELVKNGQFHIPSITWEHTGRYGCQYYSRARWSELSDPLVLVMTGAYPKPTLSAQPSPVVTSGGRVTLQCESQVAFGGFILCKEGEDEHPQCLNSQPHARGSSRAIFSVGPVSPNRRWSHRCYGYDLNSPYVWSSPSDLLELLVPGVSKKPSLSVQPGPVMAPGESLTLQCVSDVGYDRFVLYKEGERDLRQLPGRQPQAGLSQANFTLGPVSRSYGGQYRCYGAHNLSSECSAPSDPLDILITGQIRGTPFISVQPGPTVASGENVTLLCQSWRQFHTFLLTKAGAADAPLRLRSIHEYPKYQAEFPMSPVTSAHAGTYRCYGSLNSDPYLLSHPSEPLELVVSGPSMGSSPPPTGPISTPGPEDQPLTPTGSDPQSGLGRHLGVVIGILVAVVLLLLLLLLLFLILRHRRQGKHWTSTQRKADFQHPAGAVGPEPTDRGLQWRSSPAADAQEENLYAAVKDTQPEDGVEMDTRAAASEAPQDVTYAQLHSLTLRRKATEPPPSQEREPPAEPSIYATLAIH

Q: Which “effect of a mutation on the interaction” value does the source give for MVVMAPRTLFLLLSGALTLTETWAGSHSMRYFSAAVSRPGRGEPRFIAMGYVDDTQFVRFDSDSASPRMEPRAPWVEQEGPEYWEEETRNTKAHAQTDRMNLQTLRGYYNQSEANPPKTHVTHHPVFDYEATLRCWALGFYPAEIILTWQRDGEDQTQDVELVETRPAGDGTFQKWAAVVVPSGEEQRYTCHVQHEGLPEPLMLRWKQSSLPTIPIMGIVAGLVVLAAVVTGAAVAAVLWRKKSSD [C66S] here?
A: Its value is “with no effect”.
